Here are results for two molecules from article PMC4178188, “RIG-I Self-Oligomerization Is Either Dispensable or Very Transient for Signal Transduction”.

Data set [1] concerns the target T1, RIG-I (hRIG-I) (human, UniProt O95786 1-925).
T1 sequence: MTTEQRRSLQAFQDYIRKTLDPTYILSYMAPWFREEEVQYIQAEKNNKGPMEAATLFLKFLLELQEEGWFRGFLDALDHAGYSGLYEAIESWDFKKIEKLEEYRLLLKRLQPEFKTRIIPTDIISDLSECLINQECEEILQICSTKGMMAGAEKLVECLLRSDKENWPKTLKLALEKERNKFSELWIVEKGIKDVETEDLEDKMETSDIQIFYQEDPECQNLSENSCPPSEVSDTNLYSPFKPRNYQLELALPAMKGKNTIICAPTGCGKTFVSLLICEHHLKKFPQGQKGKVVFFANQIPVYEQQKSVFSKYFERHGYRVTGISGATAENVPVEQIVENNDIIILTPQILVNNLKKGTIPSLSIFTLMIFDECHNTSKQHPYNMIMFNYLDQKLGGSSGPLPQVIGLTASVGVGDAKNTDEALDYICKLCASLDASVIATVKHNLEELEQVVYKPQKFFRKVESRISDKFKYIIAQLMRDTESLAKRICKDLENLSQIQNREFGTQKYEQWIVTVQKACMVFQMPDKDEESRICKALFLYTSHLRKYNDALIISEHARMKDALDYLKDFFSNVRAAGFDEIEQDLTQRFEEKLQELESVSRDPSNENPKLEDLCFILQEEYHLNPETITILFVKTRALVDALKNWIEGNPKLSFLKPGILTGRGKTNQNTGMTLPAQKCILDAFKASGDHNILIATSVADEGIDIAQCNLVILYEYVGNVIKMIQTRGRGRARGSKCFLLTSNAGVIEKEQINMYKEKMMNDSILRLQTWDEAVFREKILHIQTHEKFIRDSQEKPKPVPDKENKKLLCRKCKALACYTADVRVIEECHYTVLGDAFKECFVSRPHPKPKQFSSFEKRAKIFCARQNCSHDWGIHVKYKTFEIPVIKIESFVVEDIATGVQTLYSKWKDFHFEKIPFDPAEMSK
Briefly: SEC-MALLS; 2 mM ATP analogue; complex 110 kDa, 1:1. The conditions noted are these: protein: recombinant; double-stranded side products or secondary structure possible.

Data set [2] deals with T1, RIG-I (hRIG-I). The data set is described as follows: SEC-MALLS; 2 mM ATP analogue; complex 113 kDa, 1:1; SEC-MALLS: 37 mM RIG-I, 40 mM RNA (units as printed), 2 mM ATP analogue, S200 column; buffer, salt, pH and temperature not in the material. The conditions noted are these: protein: recombinant; double-stranded side products or secondary structure possible.

B1: Rabies leader 5'ppp-RNA (RabV-L) (ssRNA)
RNA: GGACGCUUAACAACAAAACCAGAGAAGAAAAAGACAGCGUCAAUUGCAAACGAAAAAUGUGC
modifications: 5'-triphosphate
With B1, the binding result with RIG-I (hRIG-I) [1] is reported as “binds”.

B2: Measles leader 5'ppp-RNA (MeV-L) (ssRNA)
RNA: GGACCAAACAAAGUUGGGUAAGGAUAGAUCAAUCAAUGAUCAUAUUCUAGUACACUUGAAUUC
modifications: 5'-triphosphate
With B2, the binding result in the data set with RIG-I (hRIG-I) [2] was “binds”.
